Experimental data taken from paper PMC3127848, “Decreased expression of BRCA1 in SK-BR-3 cells is the result of aberrant activation of the GABP Beta promoter by an NRF-1-containing complex”.

Target: T1, recombinant NRF-1 (rNRF-1) (human, UniProt Q16656 1-503)
T1 sequence: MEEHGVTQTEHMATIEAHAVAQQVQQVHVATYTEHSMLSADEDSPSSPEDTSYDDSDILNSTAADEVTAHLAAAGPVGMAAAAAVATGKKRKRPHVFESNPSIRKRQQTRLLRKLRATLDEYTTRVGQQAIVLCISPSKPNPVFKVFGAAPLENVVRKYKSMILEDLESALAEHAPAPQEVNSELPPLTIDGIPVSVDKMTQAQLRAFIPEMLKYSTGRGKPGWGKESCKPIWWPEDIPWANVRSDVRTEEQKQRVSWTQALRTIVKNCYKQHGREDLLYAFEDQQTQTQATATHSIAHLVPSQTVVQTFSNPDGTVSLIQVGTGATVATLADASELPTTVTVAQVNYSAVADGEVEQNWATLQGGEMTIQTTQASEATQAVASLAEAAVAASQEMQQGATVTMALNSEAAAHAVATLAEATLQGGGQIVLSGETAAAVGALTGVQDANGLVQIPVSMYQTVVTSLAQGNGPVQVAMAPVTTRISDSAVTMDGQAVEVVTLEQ
Assay: EMSA; 0.03-5 ug protein, concentration-dependent; 25 mM HEPES pH 7.6, 5 mM MgCl2, 34 mM KCl, 50 ug/mL poly dI:dC, 0.5 mg/mL BSA, on ice 15 min; 6% acrylamide 0.25x TBE gel
Conditions: tags: N-terminal MBP fusion (pMAL-c2), chain copies: 2, label: 32P

B1: Gb-270 (dsDNA)
DNA 1: CTGCCGCGCAGGCGCCGGGC
DNA 2: GCCCGGCGCCTGCGCGGCAG
- binding result: binds
